Experimental findings from paper PMC3672086, “TWEAK-Independent Fn14 Self-Association and NF-κB Activation Is Mediated by the C-Terminal Region of the Fn14 Cytoplasmic Domain” (PLoS ONE, 2013) are described below.

The data set deals with the molecule itself. In words: cross-linking; cell surface proteins of transfected HEK293/NF-κB-luc/Fn14-HA cells cross-linked with 1 mM BS3 in PBS, 20 min, room temperature; lysis in HNTG buffer, reducing SDS-PAGE, anti-myc Western blot. In general terms: Immunoblotting shows a protein as a band on a membrane.

As usually defined, the stoichiometry N is the number of molecules, sites or subunits per partner or assembly.

B1: myc epitope-tagged Fn14 extracellular domain deletion (Fn14-ΔEC) (receptor, human, UniProt Q9NP84 28-129, looked up)
chain: EQAPGAAAPPAPFRLLWPILGGALSLTFVLGLLSGFLVWRRCRRREKFTTPIEETGGEGCPAVALIQ
notes: human Fn14 splice variant (exon 2 skipped), 94-aa precursor missing amino acids 33-67 of the extracellular domain; mature myc-tagged protein 77 aa; Cloned from U87-luc cell mRNA; natural splice variant mRNA, endogenous protein not detected by the authors; also called ΔEC mutant; short Fn14 isoform; source: HEK293 or HEK293/NF-κB-luc/Fn14-HA cells, transiently transfected (pcDNA6/Fn14-ΔEC), on …
In the case of B1, the “stoichiometry N” value was determined as 2.
